Where no end group is shown, it is not given here. [ ]: non-standard residue; d: D form. sY = N[C@@H](Cc1ccc(OS(=O)(=O)O)cc1)C(=O)O
Columns and labels:
[1] = biological target: T1, BNGR-A9 expressed in BmN cells (pIZT-BNGR-A9) (Bombyx mori) (UniProt B3XXM2)
T1 sequence: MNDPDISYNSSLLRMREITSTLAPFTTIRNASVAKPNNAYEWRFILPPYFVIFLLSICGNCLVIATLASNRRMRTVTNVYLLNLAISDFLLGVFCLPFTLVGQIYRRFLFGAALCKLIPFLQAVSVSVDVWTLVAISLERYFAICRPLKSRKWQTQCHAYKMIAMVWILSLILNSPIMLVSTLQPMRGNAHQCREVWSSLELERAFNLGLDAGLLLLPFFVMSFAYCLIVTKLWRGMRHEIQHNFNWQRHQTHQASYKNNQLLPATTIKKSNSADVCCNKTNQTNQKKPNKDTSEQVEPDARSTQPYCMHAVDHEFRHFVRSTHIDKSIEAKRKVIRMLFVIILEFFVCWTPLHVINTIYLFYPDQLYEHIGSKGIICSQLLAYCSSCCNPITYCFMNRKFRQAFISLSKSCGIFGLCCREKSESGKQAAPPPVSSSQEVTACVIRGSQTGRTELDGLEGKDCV

[2] = biological target: T2, Flag-BNGR-A9 (Bombyx mori neuropeptide G protein-coupled receptor A9) expressed in HEK293 cells (Bombyx mori) (UniProt B3XXM2)
T2 sequence: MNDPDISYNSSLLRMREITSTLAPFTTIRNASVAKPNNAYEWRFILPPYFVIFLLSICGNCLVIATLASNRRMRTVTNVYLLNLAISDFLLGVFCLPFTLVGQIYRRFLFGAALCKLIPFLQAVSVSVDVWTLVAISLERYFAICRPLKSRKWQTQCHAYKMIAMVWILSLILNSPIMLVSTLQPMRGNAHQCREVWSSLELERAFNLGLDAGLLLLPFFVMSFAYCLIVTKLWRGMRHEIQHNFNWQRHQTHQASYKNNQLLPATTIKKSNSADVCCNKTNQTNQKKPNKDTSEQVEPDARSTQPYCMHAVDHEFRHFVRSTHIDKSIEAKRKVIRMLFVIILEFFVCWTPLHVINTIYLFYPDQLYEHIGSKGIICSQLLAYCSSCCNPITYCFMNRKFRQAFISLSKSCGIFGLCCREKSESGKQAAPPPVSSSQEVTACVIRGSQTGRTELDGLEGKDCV

[3] = biological target: T1, BNGR-A9 expressed in BmN cells (pIZT-BNGR-A9) (Bombyx mori); remark: listed apart in the source
[4] = biological target: T2, Flag-BNGR-A9 (Bombyx mori neuropeptide G protein-coupled receptor A9) expressed in HEK293 cells (Bombyx mori); remark: listed apart in the source

B1: Bombyx mori sulfated-sulfakinin (peptide)
peptide: GDDTFDD[sY]GHLRF-NH2
modifications: N-terminus assumed
SMILES: CC(C)C[C@H](NC(=O)[C@H](Cc1c[nH]cn1)NC(=O)CNC(=O)[C@H](Cc1ccc(OS(=O)(=O)O)cc1)NC(=O)[C@H](CC(=O)O)NC(=O)[C@H](CC(=O)O)NC(=O)[C@H](Cc1ccccc1)NC(=O)[C@@H](NC(=O)[C@H](CC(=O)O)NC(=O)[C@H](CC(=O)O)NC(=O)CN)[C@@H](C)O)C(=O)N[C@@H](CCCNC(=N)N)C(=O)N[C@@H](Cc1ccccc1)C(N)=O
B1 showed a CRE-driven luciferase reporter, dose-response, BmN cells stably expressing BNGR-A9 [1] of 60 nM, a CRE-driven luciferase reporter, dose-response, HEK293 cells stably expressing BNGR-A9 [2] of 73.3 nM and a Fura-2 AM Ca2+ mobilization, dose-response, BmN cells expressing BNGR-A9 [3] of 51.4 nM. The Fura-2 AM Ca2+ mobilization, dose-response 1 nM to 1 uM, HEK293 cells stably expressing BNGR-A9 [4] was 29 nM.

Reference: paper PMC11190223, “Identification of sulfakinin receptor regulating feeding behavior and hemolymph trehalose homeostasis in the silkworm, Bombyx mori” (Scientific Reports, 2024)
